Measurements published in patent publication US20140212436A1.

Legend:
Test in all cases: Biacore
[1] = biological target: human H131 FcγRIIa (human) (UniProt P12318)
[2] = biological target: recombinant human FcγRIIb protein (human) (UniProt P31994)
FcγRIIaR (human) = FcγRIIaR (human) (UniProt P12318)
[3] = biological target: human V158 FcγRIIIa (human) (UniProt P08637)
human FcγRI (human) = human FcγRI (human) (UniProt P12314)
Chain of human FcγRI (human) (P12314 16-288 limits assumed): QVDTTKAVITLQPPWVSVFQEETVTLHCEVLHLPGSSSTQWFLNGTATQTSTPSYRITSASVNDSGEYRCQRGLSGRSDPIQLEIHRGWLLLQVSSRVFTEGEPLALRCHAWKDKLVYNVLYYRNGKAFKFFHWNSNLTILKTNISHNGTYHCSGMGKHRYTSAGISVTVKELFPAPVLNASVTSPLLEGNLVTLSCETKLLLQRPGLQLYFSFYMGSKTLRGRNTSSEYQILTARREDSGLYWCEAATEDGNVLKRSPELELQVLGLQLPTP

Chain of FcγRIIaR (human) (P12318 34-217 H167R limits assumed): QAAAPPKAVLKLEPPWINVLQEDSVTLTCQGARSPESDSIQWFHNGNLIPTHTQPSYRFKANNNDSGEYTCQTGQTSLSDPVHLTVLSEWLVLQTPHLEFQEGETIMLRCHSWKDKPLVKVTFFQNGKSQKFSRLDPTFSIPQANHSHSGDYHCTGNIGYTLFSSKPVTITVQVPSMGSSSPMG
Chain of human V158 FcγRIIIa (human) (P08637 other isoform, or with tags, fused parts or gaps limits assumed): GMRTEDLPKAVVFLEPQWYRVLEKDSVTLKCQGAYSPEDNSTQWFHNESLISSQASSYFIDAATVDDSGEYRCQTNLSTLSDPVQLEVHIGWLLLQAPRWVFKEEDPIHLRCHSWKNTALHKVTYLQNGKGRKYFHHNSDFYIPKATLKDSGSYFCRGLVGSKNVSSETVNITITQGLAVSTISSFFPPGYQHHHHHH
Chain of human H131 FcγRIIa (human) (P12318 other isoform, or with tags, fused parts or gaps limits assumed): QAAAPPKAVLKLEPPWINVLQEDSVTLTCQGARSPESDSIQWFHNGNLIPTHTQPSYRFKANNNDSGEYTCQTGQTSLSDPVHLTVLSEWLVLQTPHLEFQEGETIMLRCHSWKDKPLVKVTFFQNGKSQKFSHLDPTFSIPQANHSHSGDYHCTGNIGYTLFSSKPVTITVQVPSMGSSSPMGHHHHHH
Chain of recombinant human FcγRIIb protein (human) (P31994 46-217 limits assumed): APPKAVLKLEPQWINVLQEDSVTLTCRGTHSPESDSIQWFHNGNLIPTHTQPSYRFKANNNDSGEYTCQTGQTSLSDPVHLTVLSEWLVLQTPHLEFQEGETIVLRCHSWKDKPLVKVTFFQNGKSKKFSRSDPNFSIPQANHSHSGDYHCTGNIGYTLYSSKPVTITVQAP

Substance	Fold [1]	Kd [1]	Fold [2]	Kd [2]	Fold (FcγRIIaR (human))	Kd (FcγRIIaR (human))	Fold [3]	Kd [3]	Fold (human FcγRI (human))	Kd (human FcγRI (human))
L235Y/S267E/H268E (antibody)	0.157	4130 nM	69.9	21 nM	48.2	17.8 nM	0.428	447 nM	0.0103	32.1 nM
G236D/S267E/L328F (antibody)	0.0301	21500 nM	149	9.87 nM	59.9	14.3 nM			0.0736	4.48 nM
S239D/S267E/H268E (antibody)		817 nM		6.91 nM						0.326 nM
G236D (antibody)	0.167	3870 nM	1.54	953 nM	0.758	1130 nM			0.0211	15.6 nM
H268D (antibody)	1.89	342 nM	3.06	480 nM	4.19	205 nM	3.08	62.2 nM	2.35	0.14 nM
G236D/S239D/S267E (antibody)	0.217	2980 nM	84.8	17.3 nM	26.7	32.2 nM			0.0685	4.81 nM
A327N (antibody)			0.843	1740 nM	0.609	1410 nM			0.0279	11.8 nM
V266M/S267E (antibody)	10.9	59.2 nM	29.2	50.2 nM	30.7	28 nM	0.0448	4270 nM	1.98	0.166 nM
S267G (antibody)				1450 nM		517 nM				0.626 nM
G236T (antibody)	0.486	1330 nM	0.00225	652000 nM	0.35	2460 nM			0.0157	21 nM
S267D (antibody)	0.93	695 nM	4.45	330 nM	8.99	95.5 nM	1.51	127 nM	2.11	0.156 nM
H268E (antibody)	1.43	453 nM	2.62	560 nM	3.19	269 nM	2.19	87.5 nM	2.74	0.12 nM
G237N/S267E (antibody)			40.5	36.2 nM	61.5	14 nM			0.101	3.25 nM
V266M (antibody)	1.17	553 nM	1.91	770 nM	3.13	274 nM	0.547	350 nM	1.25	0.264 nM
S267E/H268E (antibody)	0.765	845 nM	40.6	36.1 nM	41.7	20.6 nM	3.15	60.8 nM	3.52	0.0935 nM
G237A (antibody)			0.191	7680 nM	0.704	1220 nM			0.0108	30.5 nM
S239D/S267E/L328F (antibody)	1.71	378 nM	428	3.43 nM	416	2.06 nM	0.216	887 nM	1.45	0.227 nM
L235A (antibody)	0.0486	13300 nM	0.351	4180 nM	0.166	5180 nM	0.314	609 nM	0.0179	18.4 nM
L234W (antibody)		1160 nM		1770 nM				6590 nM		10.5 nM
L235D/S267E (antibody)			16.7	88.1 nM	13	66.1 nM			0.00039	854 nM
A327D (antibody)	0.733	882 nM	1.33	1100 nM	1.6	536 nM	0.398	481 nM	2.06	0.16 nM
S267E/H268E/L328F (antibody)	0.826	783 nM	344	4.26 nM	253	3.4 nM	0.092	2080 nM	0.991	0.333 nM
